In the supplement of paper PMC10126150:
± gives the standard deviation of the averaged measurements.

Tested on: ATP
Test: switch fluorescence ratio, 500 uM ATP over buffer (Cy3 cluster intensity, sum of 5 cycles each) (fold (ratio)); higher = stronger signal-on switching upon ATP binding; sequences stand for … in TCGTCGGCAGCGTCAGATGTGTATAAGAGACAGTTTTTTTTTTTTTTTTTTTTTTTTT…TC
Settings: aptamer strand: ATP DNA aptamer (quencher-CACCTGGGGGAGTATTGCGGAGGAAGG + anchor), 100 nM annealed; ATP concentration: 500 uM
Summary of the method: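 Clusters with intensities outside 100-1000 RFU were excluded. The remaining Cy3-labelled switching-strand clusters on a modified Illumina MiSeq flow-cell had been annealed to 100 nM quencher-labelled ATP aptamer and imaged in selection buffer, then after 15 min with 500 uM ATP at 22 °C, for five cycles separated by NaOH stripping and re-annealing. The fluorescence ratio, averaged per switch-domain sequence, is each cluster's summed target-cycle Cy3 intensity over its summed buffer-cycle Cy3 intensity.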
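Further: ATP exposure 15 min at 22 °C before imaging.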

| Sequence | switch fluorescence ratio |
| --- | --- |
| TTGCTAGCCT | 1.01 ± 0.021 |
| TTGCTAGTAT | 1.0001 ± 0.00075 |
| TTGCTATGTT | 1.01 ± 0.037 |
| TTGCTCACTT | 1.04 ± 0.029 |
| TTGCTCTTGG | 0.956 ± 0.0095 |
| TTGCTGAGCT | 0.9984 ± 0.0076 |
| TTGCTGATTT | 0.992 ± 0.059 |
| TTGCTGGGCC | 1.02 ± 0.088 |
| TTGCTTAGTT | 1.002 ± 0.0071 |
| TTGCTTATCG | 1.021 ± 0.0047 |
| TTGCTTATGG | 1.01 ± 0.015 |
| TTGCTTCGGC | 0.976 ± 0.04 |
| TTGCTTGGTG | 1.03 ± 0.017 |
| TTGCTTGTTG | 1.02 ± 0.034 |
| TTGCTTTTCG | 0.974 ± 0.015 |
| TTGCTTTTTG | 0.984 ± 0.064 |
| TTGGAAACCA | 1.02 ± 0.015 |
| TTGGAAACGT | 1.06 ± 0.067 |
| TTGGAAAGCA | 1.03 ± 0.027 |
| TTGGAAATTT | 1.05 ± 0.17 |
| TTGGAAGATT | 0.9881 ± 0.003 |
| TTGGAATGGG | 1 ± 0.026 |
| TTGGACAGTT | 0.99 ± 0.04 |
| TTGGACGGGG | 1.07 ± 0.035 |
| TTGGACGTGT | 0.946 ± 0.027 |

| Sequence | switch fluorescence ratio |
| --- | --- |
| TTGGACTCGG | 0.997 ± 0.034 |
| TTGGAGAGGT | 1.02 ± 0.019 |
| TTGGAGGCCC | 0.9801 ± 0.0029 |
| TTGGAGGGG | 0.988 ± 0.025 |
| TTGGAGGTAG | 1 ± 0.037 |
| TTGGAGGTTT | 1.17 ± 0.24 |
| TTGGATACGG | 0.995 ± 0.031 |
| TTGGATCTTA | 0.972 ± 0.02 |
| TTGGATTAGT | 0.982 ± 0.011 |
| TTGGATTCCC | 0.977 ± 0.064 |
| TTGGATTCGG | 0.972 ± 0.017 |
| TTGGATTTTG | 0.978 ± 0.043 |
| TTGGCAGTG | 0.993 ± 0.019 |
| TTGGCATAAG | 1.16 ± 0.28 |
| TTGGCATGTT | 1.005 ± 0.0093 |
| TTGGCCCGGC | 1.52 ± 0.72 |
| TTGGCCGTGT | 1.02 ± 0.028 |
| TTGGCCTTCC | 2.19 ± 0.74 |
| TTGGCGACAT | 1.02 ± 0.021 |
| TTGGCGAGTT | 1.007 ± 0.002 |
| TTGGCGGACG | 0.984 ± 0.026 |
| TTGGCGGAGT | 1.01 ± 0.032 |
| TTGGCGGCTA | 0.982 ± 0.024 |
| TTGGCGTATC | 0.946 ± 0.041 |
| TTGGCGTTCG | 1.01 ± 0.025 |

| Sequence | switch fluorescence ratio |
| --- | --- |
| TTGGCTGCGG | 0.95 ± 0.021 |
| TTGGCTGGTG | 1.03 ± 0.04 |
| TTGGCTTAAA | 1.007 ± 0.0097 |
| TTGGCTTTGT | 0.985 ± 0.022 |
| TTGGCTTTTA | 0.99017 ± 0.00047 |
| TTGGGAAAAA | 1.14 ± 0.23 |
| TTGGGAAAGA | 1.21 ± 0.34 |
| TTGGGAACGG | 1.03 ± 0.034 |
| TTGGGAAGGA | 1.02 ± 0.042 |
| TTGGGACAAT | 1.04 ± 0.044 |
| TTGGGACTTT | 1.03 ± 0.022 |
| TTGGGAGAAG | 0.993 ± 0.051 |
| TTGGGATGGG | 0.998 ± 0.015 |
| TTGGGCAAAA | 0.985 ± 0.065 |
| TTGGGCAGGA | 1.06 ± 0.047 |
| TTGGGCAGTG | 1.02 ± 0.045 |
| TTGGGCCAGG | 1.14 ± 0.12 |
| TTGGGCCCTG | 1.06 ± 0.014 |
| TTGGGCGAGG | 1.025 ± 0.0075 |
| TTGGGCTCTG | 0.988 ± 0.018 |
| TTGGGCTTAT | 1.001 ± 0.0066 |
| TTGGGGAAAT | 1.31 ± 0.68 |
| TTGGGGAATG | 0.999 ± 0.049 |
| TTGGGGAGTT | 1.01 ± 0.044 |
| TTGGGGATCG | 0.983 ± 0.056 |

| Sequence | switch fluorescence ratio |
| --- | --- |
| TTGGGGCCAA | 1.01 ± 0.051 |
| TTGGGGCCCT | 1.01 ± 0.029 |
| TTGGGGCCGA | 0.956 ± 0.017 |
| TTGGGGCGCG | 0.989 ± 0.051 |
| TTGGGGCTGA | 0.993 ± 0.037 |
| TTGGGGGAGC | 0.976 ± 0.018 |
| TTGGGGGCCA | 0.9898 ± 0.0041 |
| TTGGGGGCGG | 1.01 ± 0.015 |
| TTGGGGGCTC | 0.998 ± 0.024 |
| TTGGGGGGAC | 1.03 ± 0.029 |
| TTGGGGGTT | 1.03 ± 0.017 |
| TTGGGGTAG | 1.02 ± 0.033 |
| TTGGGGTAGG | 1.01 ± 0.032 |
| TTGGGGTCCT | 0.984 ± 0.023 |
| TTGGGGTTAG | 0.988 ± 0.017 |
| TTGGGGTTAT | 0.975 ± 0.032 |
| TTGGGGTTGC | 1.01 ± 0.034 |
| TTGGGTAAGA | 1.02 ± 0.028 |
| TTGGGTATTA | 0.9656 ± 0.0024 |
| TTGGGTATTT | 0.986 ± 0.021 |
| TTGGGTCCGA | 1.01 ± 0.049 |
| TTGGGTGAAG | 1.01 ± 0.025 |
| TTGGGTGCGG | 1 ± 0.066 |
| TTGGGTGGAG | 0.991 ± 0.023 |
| TTGGGTGGGT | 1 ± 0.038 |
